Measurements from article PMC6181577 (Molecular cell, 2018).
Each block holds one binder with its values, some of them ahead of it.

What was measured:
[1] = target: the molecule itself; test: SEC
[2] = target: Ubiquitin (WT) (UniProt P0CG48 1-76); test: NMR titration

- Kd [2]: 3000 nM
B1: UBQLN2 450–624 (domain or fragment, human)
chain: RAMQALMQIQQGLQTLATEAPGLIPSFTPGVGVGVLGTAIGPVGPVTPIGPIGPIVPFTPIGPIGPIGPTGPAAPPGSTGSGGPTGPTVSSAAPSETTSPTSESGPNQQFIQQMVQALAGANAPQLPNPEVRFQQQLEQLNAMGFLNREANLQALIATGGDINAAIERLLGSQPSW
- binding result [1]: binds

B2: UBQLN2 379–624 (domain or fragment, human)
chain: NPQLIQNMLSAPYMRSMMQSLSQNPDLAAQMMLNSPLFTANPQLQEQMRPQLPAFLQQMQNPDTLSAMSNPRAMQALMQIQQGLQTLATEAPGLIPSFTPGVGVGVLGTAIGPVGPVTPIGPIGPIVPFTPIGPIGPIGPTGPAAPPGSTGSGGPTGPTVSSAAPSETTSPTSESGPNQQFIQQMVQALAGANAPQLPNPEVRFQQQLEQLNAMGFLNREANLQALIATGGDINAAIERLLGSQPSW
- binding result [1]: binds
